Results from patent US20060211003.

Test system: putative Thermus thermophilus Pol III ε-subunit

## Thermus thermophilus DNA Pol III α-subunit (DnaE)
  3′→5′ exonuclease activity: This interaction stimulates the 3′→5′ exonuclease activity 5 fold
